Article PMC10279719 (Nature Communications, 2023)

How the values were obtained:
[1] = target: T1, PEAK3 tandem peptide, non-phosphorylated (residues 54-74) (human, N-terminal acetyl; C-terminal amide); assay: ITC; second of two sequential titrations ('ternary'); CrkII NSH3 (400 µM) in the syringe titrated into the non-phosphorylated PEAK3 tandem peptide (16.8 µM) with the 14-3-3γ of the first titration, which did not bind, still in the cell; 25 °C, 20 mM HEPES pH 7.4, 150 mM NaCl, 1 mM TCEP; conditions: both partners purified
T1 construct: source: synthetic peptide, bought: Mimotopes (95% purity)
T1 peptide: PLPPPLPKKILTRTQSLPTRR

[2] = target: T2, full length PEAK3 (PEAK3^FL, residues 1-473), from E. coli (human, UniProt Q6ZS72 1-473, biotin (EZ-Link NHS-PEG4-Biotin, 1:1 molar ratio)); assay: SPR; biotinylated PEAK proteins (with or without Src phosphorylation) captured with a biotin CAPture kit, CrkII NSH3 as analyte; Biacore 8K+, 20 °C, HBS-TP (150 mM NaCl); 1 M NaCl regeneration; steady state; conditions: both partners purified
T2 construct: also called PEAK3-FL E.coli; source: E. coli C41 (DE3), purified (two-step purification)
T2 sequence (looked up): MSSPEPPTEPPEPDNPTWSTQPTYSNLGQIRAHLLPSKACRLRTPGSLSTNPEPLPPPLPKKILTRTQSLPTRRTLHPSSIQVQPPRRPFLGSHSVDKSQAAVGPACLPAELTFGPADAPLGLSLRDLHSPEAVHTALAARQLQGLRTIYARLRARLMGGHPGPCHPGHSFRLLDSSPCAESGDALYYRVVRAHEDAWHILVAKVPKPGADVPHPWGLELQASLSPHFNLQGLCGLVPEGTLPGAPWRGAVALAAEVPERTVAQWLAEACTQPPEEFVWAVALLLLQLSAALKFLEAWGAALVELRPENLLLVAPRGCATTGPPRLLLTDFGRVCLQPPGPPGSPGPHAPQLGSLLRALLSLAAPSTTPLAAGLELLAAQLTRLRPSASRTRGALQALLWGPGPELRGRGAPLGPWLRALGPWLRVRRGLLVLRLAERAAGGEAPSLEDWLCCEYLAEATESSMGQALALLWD

- stoichiometry N [1]: 0.654
- Kd [2]: 9.6 µM
B1: CrkII N-terminal SH3 domain (CrkII^NSH3, residues 134-191) (domain or fragment, human, UniProt P46108-1 134-191, looked up)
chain: AEYVRALFDFNGNDEEDLPFKKGDILRIRDKPEEQWWNAEDSEGKRGMIPVPYVEKYR
notes: human CrkII NSH3 domain, UniProt P46108-1, residues 134-191; Amine coupled to a CM5 chip in a2; analyte in a4; in the syringe in ITC
